Usually Kd stands for the concentration at which binding is half-saturated.

This is an account of results in patent US12036274B2, “Recombinant MPT protein derived from MPT63 and MPT64 and use thereof” (priority 2021, dated 2024).

The subject of assay [1] is TBK1 and p47phox. Nature of the assay: Co-immunoprecipitation of rMPT63 in THP-1 cells. The assay is classed as cell-based, human. Conditions: 5 μg/ml.
Assay [2] addresses TBK1 (Homo sapiens, UniProt Q9UHD2). Conditions: read-out: Kd of interaction with TBK1; fluorescently labeled protein titrated with unlabeled TBK1, curve fitting, 25° C., pH 7.4.
Procedure: (§1) The interaction of MPT63-TBK1 with p47phox and the interaction of MPT64-TBK1 with HK2 were monitored using a Fluoromax-4 spectrofluorometer (HORIBA Scientific) which was performed as previously described (Guo et al., 2005). MPT63 and MPT64, respectively, were labeled with BODIPY FL Iodoacetamide (ThermoFisher Scientific) according to the manufacturer's instructions. The labeled MPT63 or MPT64 was excited at 350 nm and detected through a cutoff filter at 512 nm. The fluorescently labeled MPT63 or MPT64 was titrated with unlabeled TBK1, p47phox or HK2 for kinetic analysis. The excitation and emission wavelengths were 498 mm and 518 nm, respectively. The obtained data were verified using the Grafit program, and all fluorescence measurements were performed at 25° C. in 30 mM Tris, pH 7.4, 150 mM NaCl and 1 mM dithiothryitol.
The target in assay [3] is T1, p47phox (Homo sapiens, UniProt P14598).
T1 sequence (P14598 1-390): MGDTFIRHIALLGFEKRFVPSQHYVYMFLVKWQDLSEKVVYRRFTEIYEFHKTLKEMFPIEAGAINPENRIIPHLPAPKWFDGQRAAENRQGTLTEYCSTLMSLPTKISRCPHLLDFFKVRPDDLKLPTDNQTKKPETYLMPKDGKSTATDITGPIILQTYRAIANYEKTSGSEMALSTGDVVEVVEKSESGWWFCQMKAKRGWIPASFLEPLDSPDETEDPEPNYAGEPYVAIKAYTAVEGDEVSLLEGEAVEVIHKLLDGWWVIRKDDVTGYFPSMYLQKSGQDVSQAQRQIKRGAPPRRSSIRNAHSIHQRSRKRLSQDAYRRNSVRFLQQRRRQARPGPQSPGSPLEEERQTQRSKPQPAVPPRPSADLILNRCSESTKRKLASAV
The following applies: read-out: Kd of interaction with p47phox; fluorescently labeled MPT63 titrated with unlabeled p47phox, 25° C., pH 7.4.
Procedure: as §1

Assay [4] has as its target HK2 (Homo sapiens, UniProt P52789).
Procedure: as §1
For assay [5], the target named is T2, TBK1 and HK2 (Homo sapiens, UniProt Q9UHD2).
T2 construct: endogenous in cells; host or cells: THP-1
T2 sequence (Q9UHD2 1-729): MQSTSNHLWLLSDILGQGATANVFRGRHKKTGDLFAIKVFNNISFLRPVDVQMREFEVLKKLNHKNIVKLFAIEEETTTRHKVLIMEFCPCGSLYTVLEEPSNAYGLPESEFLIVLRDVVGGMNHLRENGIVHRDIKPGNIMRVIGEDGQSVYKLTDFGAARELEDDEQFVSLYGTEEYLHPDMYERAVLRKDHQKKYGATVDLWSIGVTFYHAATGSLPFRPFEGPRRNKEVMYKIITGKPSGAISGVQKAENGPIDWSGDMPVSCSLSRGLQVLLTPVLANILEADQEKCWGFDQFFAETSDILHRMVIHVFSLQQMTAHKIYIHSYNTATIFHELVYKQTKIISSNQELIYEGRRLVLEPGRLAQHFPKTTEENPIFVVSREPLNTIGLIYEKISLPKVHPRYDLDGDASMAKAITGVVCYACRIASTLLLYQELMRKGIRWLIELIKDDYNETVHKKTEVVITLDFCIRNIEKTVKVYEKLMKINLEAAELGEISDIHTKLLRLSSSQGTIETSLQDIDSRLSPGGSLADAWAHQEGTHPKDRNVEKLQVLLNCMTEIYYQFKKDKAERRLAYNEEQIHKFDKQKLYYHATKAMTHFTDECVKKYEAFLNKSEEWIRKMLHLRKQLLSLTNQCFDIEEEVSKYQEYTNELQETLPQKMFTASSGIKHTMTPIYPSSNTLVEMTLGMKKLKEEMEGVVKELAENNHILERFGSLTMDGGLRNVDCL
In words: Co-immunoprecipitation of rMPT64 in THP-1 cells. The following applies: 5 μg/ml. It is filed as cell-based.

HK2, sequence (P52789 whole entry): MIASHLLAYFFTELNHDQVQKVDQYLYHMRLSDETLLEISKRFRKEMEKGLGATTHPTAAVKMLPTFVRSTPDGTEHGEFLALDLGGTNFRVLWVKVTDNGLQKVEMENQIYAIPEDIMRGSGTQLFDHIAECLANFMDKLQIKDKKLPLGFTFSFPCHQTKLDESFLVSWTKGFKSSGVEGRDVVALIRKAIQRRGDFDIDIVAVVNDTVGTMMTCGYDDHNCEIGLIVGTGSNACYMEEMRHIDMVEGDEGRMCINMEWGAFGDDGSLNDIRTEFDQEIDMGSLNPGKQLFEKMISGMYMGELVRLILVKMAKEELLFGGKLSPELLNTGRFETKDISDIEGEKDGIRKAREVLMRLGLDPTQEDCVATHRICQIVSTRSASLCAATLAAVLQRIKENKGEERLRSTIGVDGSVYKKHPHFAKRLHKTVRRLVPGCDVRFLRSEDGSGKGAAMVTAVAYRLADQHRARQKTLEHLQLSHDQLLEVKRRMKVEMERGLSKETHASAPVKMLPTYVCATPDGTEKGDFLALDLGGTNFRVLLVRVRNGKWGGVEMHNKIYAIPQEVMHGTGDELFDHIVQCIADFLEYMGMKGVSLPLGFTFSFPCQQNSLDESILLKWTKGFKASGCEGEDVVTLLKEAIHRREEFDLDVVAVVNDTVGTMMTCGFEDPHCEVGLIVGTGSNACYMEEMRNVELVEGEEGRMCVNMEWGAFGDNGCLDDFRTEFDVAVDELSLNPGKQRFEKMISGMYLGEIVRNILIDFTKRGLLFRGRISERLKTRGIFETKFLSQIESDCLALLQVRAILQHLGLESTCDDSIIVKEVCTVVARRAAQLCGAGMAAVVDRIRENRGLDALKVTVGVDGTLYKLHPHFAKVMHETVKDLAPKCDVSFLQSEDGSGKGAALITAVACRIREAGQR

B1: MPT63: secreted antigen of Mycobacterium tuberculosis, recombinant, purified with the 6×His bacterial expression system (protein)
chain: AYPITGKLGSELTMTDTVGQVVLGWKVSDLKSSTAVIPGYPVAGQVWEATATVNAIRGSVTPAVSQFNARTADGINYRVLWQAAGPDTISGATIPQGEQSTGKIYFDVTGPSPTIVAMNNGMEDLLIWEP
modifications: left off: small tags and cut ends
notes: secreted antigen of Mycobacterium tuberculosis, recombinant, purified with the 6×His bacterial expression system
B1: the “endogenous interaction with TBK1 and p47phox” value in assay [1] is “endogenously interacted”. Further, the figures for the Kd in assay [2] and in assay [3] were 178 nM and 345 nM, respectively.

B2: MPT64: secreted antigen of Mycobacterium tuberculosis, recombinant, produced in a bacterial expression system (protein)
chain: APKTYCEELKGTDTGQACQIQMSDPAYNINISLPSYYPDQKSLENYIAQTRDKFLSAATSSTPREAPYELNITSATYQSAIPPRGTQAVVLKVYQNAGGTHPTTTYKAFDWDQAYRKPITYDTLWQADTDPLPVVFPIVQGELSKQTGQQVSIAPNAGLDPVNYQNFAVTNDGVIFFFNPGELLPEAAGPTQVLVPRSAIDSMLA
modifications: left off: small tags and cut ends
notes: secreted antigen of Mycobacterium tuberculosis, recombinant, produced in a bacterial expression system
On to B2, for which the Kd in assay [4] is 134 nM; in assay [2], 193 nM. In addition, the “interaction with phosphorylated TBK1 (S172)” value in assay [5] is “interacts”.
